In patent publication US20150203577A1 (Chugai, published 2015):

Tests used:
[1] = molecular target: T1, mouse FcγRII (mouse, UniProt P08101 30-210); assay: SPR (Biacore T200); KD of H237-MB630/MRAL-k0 / KD of variant
T1 construct: Extracellular domain with C-terminal His tag; also called mFcγRII; mFcgRII
T1 sequence: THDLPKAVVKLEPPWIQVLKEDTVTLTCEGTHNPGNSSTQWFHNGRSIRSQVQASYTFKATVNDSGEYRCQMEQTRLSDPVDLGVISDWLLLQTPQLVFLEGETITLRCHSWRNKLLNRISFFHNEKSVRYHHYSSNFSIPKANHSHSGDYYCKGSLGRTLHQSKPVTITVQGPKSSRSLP
Text: (§1) The antibody H chain variable region used was the variable region H237 (SEQ ID NO: 1) of the H chain VH3-IgG1 of the anti-IL-6 receptor antibody Fv4-IgG1 described in WO2009/125825. The antibody L chain commonly used was the L chain MRAL-k0 (SEQ ID NO: 2) of the anti-IL-6 receptor antibody tocilizumab. […] These variants were expressed and purified by the method of Reference Example 1 and evaluated for their binding to mFcγRII and mFcγRIII by the method of Reference Example 2 using Biacore T200.
(§2) Each altered antibody was analyzed for its interaction with each Fcγ receptor prepared above using Biacore T100 (GE Healthcare Japan Corp.), Biacore T200 (GE Healthcare Japan Corp.), Biacore A100, or Biacore 4000. The running buffer used was HBS-EP+ (GE Healthcare Japan Corp.). The assay temperature was set to 25° C. The sensor chips used were chips prepared by immobilizing Protein L (ACTIGEN or BioVision) onto Series S Sensor Chip CM5 (GE Healthcare Japan Corp.) or Series S Sensor Chip CM4 (GE Healthcare Japan Corp.) by the amine coupling method.
(§3) In order to calculate the KD value of each altered antibody for FcγR, kinetic analysis was conducted according to the following method: first, the antibody of interest was captured onto any of these chips and allowed to interact with mFcγR diluted with a running buffer. For the obtained sensorgram, the assay results were globally fit into the 1:1 Langmuir binding model using Biacore Evaluation Software to calculate an association rate constant ka (L/mol/s) and a dissociation rate constant kd (1/s). From these values, the dissociation constant KD (mol/L) was calculated.

[2] = molecular target: T2, mouse FcγRIII (mouse, UniProt P08508 31-215); assay: as above
T2 construct: Extracellular domain with C-terminal His tag; also called mFcγRIII; mFcgRIII
T2 chain: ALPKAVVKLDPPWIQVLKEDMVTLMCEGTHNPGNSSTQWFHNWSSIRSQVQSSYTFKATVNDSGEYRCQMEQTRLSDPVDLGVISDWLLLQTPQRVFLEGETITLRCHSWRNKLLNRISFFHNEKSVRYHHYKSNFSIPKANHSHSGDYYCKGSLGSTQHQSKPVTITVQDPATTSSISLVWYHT
Text: as §1, §2, §3

[3] = molecular target: T1, mouse FcγRII; assay: SPR (Biacore T200); KD of H237-mIgG1/MRAL-k0 / KD of variant
Text: as §1, §2

[4] = molecular target: T2, mouse FcγRIII; assay: as above
Text: as §1, §2

Binder | Relative mFcγRII-binding activity (MB630 = 1) [1] | Relative mFcγRIII-binding activity (MB630 = 1) [2] | relative mFcγRII-binding activity (mIgG1 = 1) [3] | relative mFcγRIII-binding activity (mIgG1 = 1) [4]
MB756 (antibody, mouse IgG1, kappa, CH name; VH H237 + CH, L chain MRAL-k0; copies: 2 + 2) heavy: QVQLQESGPGLVKPSETLSLTCAVSGHSISHDHAWSWVRQPPGEGLEWIGFISYSGITNYNPSLQGRVTISRDNSKNTLYLQMNSLRAEDTAVYYCARSLARTTAMDYWGEGTLVTVSSAKTTPPSVYPLAPGSAAQTNSMVTLGCLVKGYFPEPVTVTWNSGSLSSGVHTFPAVLQSDLYTLSSSVTVPSSTWPSETVTCNVAHPASSTKVDKKIVPRDCGCKPCICEPNEVELVFIFPPKPKDVLTITLTPKVTCVVVDISKDDPEVQFSWFVDDVEVHTAQTQPREEQFNLTFRSVSELPIMHQDWLNGKEFKCRVNSAAFPAPIERTISKTKGRPKAPQVYTIPPPKEQMAKDKVSLTCMITDFFPEDITVEWQWNGQPAENYKNTQPIMDTDGSYFVYSKLNVQKSNWEAGNTFTCSVLHEGLHNHHTEKSLSHSPGK light: not shown | 0.64 fold | 1.09 fold | 10.6 fold | 0.21 fold
MB759 (antibody, mouse IgG1, kappa, CH name; VH H237 + CH, L chain MRAL-k0; copies: 2 + 2) heavy: QVQLQESGPGLVKPSETLSLTCAVSGHSISHDHAWSWVRQPPGEGLEWIGFISYSGITNYNPSLQGRVTISRDNSKNTLYLQMNSLRAEDTAVYYCARSLARTTAMDYWGEGTLVTVSSAKTTPPSVYPLAPGSAAQTNSMVTLGCLVKGYFPEPVTVTWNSGSLSSGVHTFPAVLQSDLYTLSSSVTVPSSTWPSETVTCNVAHPASSTKVDKKIVPRDCGCKPCICEPNEVELVFIFPPKPKDVLTITLTPKVTCVVVDISKDDPEVQFSWFVDDVEVHTAQTQPREEQFNSTFRSVSELPIMHQDWLNGKEFKCRVDSAAFPAPIERTISKTKGRPKAPQVYTIPPPKEQMAKDKVSLTCMITDFFPEDITVEWQWNGQPAENYKNTQPIMDTDGSYFVYSKLNVQKSNWEAGNTFTCSVLHEGLHNHHTEKSLSHSPGK light: not shown | 2.03 fold | 2.25 fold | 33.8 fold | 0.44 fold
MB757 (antibody, mouse IgG1, kappa, CH name; VH H237 + CH, L chain MRAL-k0; copies: 2 + 2) heavy: QVQLQESGPGLVKPSETLSLTCAVSGHSISHDHAWSWVRQPPGEGLEWIGFISYSGITNYNPSLQGRVTISRDNSKNTLYLQMNSLRAEDTAVYYCARSLARTTAMDYWGEGTLVTVSSAKTTPPSVYPLAPGSAAQTNSMVTLGCLVKGYFPEPVTVTWNSGSLSSGVHTFPAVLQSDLYTLSSSVTVPSSTWPSETVTCNVAHPASSTKVDKKIVPRDCGCKPCICEPNEVELVFIFPPKPKDVLTITLTPKVTCVVVDISKDDPEVQFSWFVDDVEVHTAQTQPREEQFNMTFRSVSELPIMHQDWLNGKEFKCRVDSAAFPAPIEKTISKTKGRPKAPQVYTIPPPKEQMAKDKVSLTCMITDFFPEDITVEWQWNGQPAENYKNTQPIMDTDGSYFVYSKLNVQKSNWEAGNTFTCSVLHEGLHNHHTEKSLSHSPGK light: not shown | 0.46 fold | 0.45 fold | 7.6 fold | 0.09 fold
MB758 (antibody, mouse IgG1, kappa, CH name; VH H237 + CH, L chain MRAL-k0; copies: 2 + 2) heavy: QVQLQESGPGLVKPSETLSLTCAVSGHSISHDHAWSWVRQPPGEGLEWIGFISYSGITNYNPSLQGRVTISRDNSKNTLYLQMNSLRAEDTAVYYCARSLARTTAMDYWGEGTLVTVSSAKTTPPSVYPLAPGSAAQTNSMVTLGCLVKGYFPEPVTVTWNSGSLSSGVHTFPAVLQSDLYTLSSSVTVPSSTWPSETVTCNVAHPASSTKVDKKIVPRDCGCKPCICEPNEVELVFIFPPKPKDVLTITLTPKVTCVVVDISKDDPEVQFSWFVDDVEVHTAQTQPREEQFNMTFRSVSELPIMHQDWLNGKEFKCRVNSAAFPAPIERTISKTKGRPKAPQVYTIPPPKEQMAKDKVSLTCMITDFFPEDITVEWQWNGQPAENYKNTQPIMDTDGSYFVYSKLNVQKSNWEAGNTFTCSVLHEGLHNHHTEKSLSHSPGK light: not shown | 0.59 fold | 0.69 fold | 9.8 fold | 0.13 fold
MB760 (antibody, mouse IgG1, kappa, CH name; VH H237 + CH, L chain MRAL-k0; copies: 2 + 2) heavy: QVQLQESGPGLVKPSETLSLTCAVSGHSISHDHAWSWVRQPPGEGLEWIGFISYSGITNYNPSLQGRVTISRDNSKNTLYLQMNSLRAEDTAVYYCARSLARTTAMDYWGEGTLVTVSSAKTTPPSVYPLAPGSAAQTNSMVTLGCLVKGYFPEPVTVTWNSGSLSSGVHTFPAVLQSDLYTLSSSVTVPSSTWPSETVTCNVAHPASSTKVDKKIVPRDCGCKPCICEPNEVELVFIFPPKPKDVLTITLTPKVTCVVVDISKDDPEVQFSWFVDDVEVHTAQTQPREEQFNLTFRSVSELPIMHQDWLNGKEFKCRVDSAAFPAPIERTISKTKGRPKAPQVYTIPPPKEQMAKDKVSLTCMITDFFPEDITVEWQWNGQPAENYKNTQPIMDTDGSYFVYSKLNVQKSNWEAGNTFTCSVLHEGLHNHHTEKSLSHSPGK light: not shown | 0.85 fold | 1.42 fold | 14.1 fold | 0.28 fold

The next lines start with the values.

Relative mFcγRII-binding activity (MB630 = 1) [1] | Relative mFcγRIII-binding activity (MB630 = 1) [2] | relative mFcγRII-binding activity (mIgG1 = 1) [3] | relative mFcγRIII-binding activity (mIgG1 = 1) [4] | Binder
0.31 fold | 0.41 fold | 3.4 fold | 0.07 fold | MB763 (antibody, mouse IgG1, kappa, CH name; VH H237 + CH, L chain MRAL-k0; copies: 2 + 2) heavy: QVQLQESGPGLVKPSETLSLTCAVSGHSISHDHAWSWVRQPPGEGLEWIGFISYSGITNYNPSLQGRVTISRDNSKNTLYLQMNSLRAEDTAVYYCARSLARTTAMDYWGEGTLVTVSSAKTTPPSVYPLAPGSAAQTNSMVTLGCLVKGYFPEPVTVTWNSGSLSSGVHTFPAVLQSDLYTLSSSVTVPSSTWPSETVTCNVAHPASSTKVDKKIVPRDCGCKPCICEPNEVELVFIFPPKPKDVLTITLTPKVTCVVVDISKDDPEVQFSWFVDDVEVHTAQTQPREEQNNSTFRSVSELPIMHQDWLNGKEFKCRVNSAAFPAPIEKTISKTKGRPKAPQVYTIPPPKEQMAKDKVSLTCMITDFFPEDITVEWQWNGQPAENYKNTQPIMDTDGSYFVYSKLNVQKSNWEAGNTFTCSVLHEGLHNHHTEKSLSHSPGK light: not shown
0.4 fold | 0.51 fold | 4.4 fold | 0.09 fold | MB762 (antibody, mouse IgG1, kappa, CH name; VH H237 + CH, L chain MRAL-k0; copies: 2 + 2) heavy: QVQLQESGPGLVKPSETLSLTCAVSGHSISHDHAWSWVRQPPGEGLEWIGFISYSGITNYNPSLQGRVTISRDNSKNTLYLQMNSLRAEDTAVYYCARSLARTTAMDYWGEGTLVTVSSAKTTPPSVYPLAPGSAAQTNSMVTLGCLVKGYFPEPVTVTWNSGSLSSGVHTFPAVLQSDLYTLSSSVTVPSSTWPSETVTCNVAHPASSTKVDKKIVPRDCGCKPCICEPNEVELVFIFPPKPKDVLTITLTPKVTCVVVDISKDDPEVQFSWFVDDVEVHTAQTQPREEQENSTFRSVSELPIMHQDWLNGKEFKCRVNSAAFPAPIEKTISKTKGRPKAPQVYTIPPPKEQMAKDKVSLTCMITDFFPEDITVEWQWNGQPAENYKNTQPIMDTDGSYFVYSKLNVQKSNWEAGNTFTCSVLHEGLHNHHTEKSLSHSPGK light: not shown
0.81 fold | 0.92 fold | 13.4 fold | 0.18 fold | MB761 (antibody, mouse IgG1, kappa, CH name; VH H237 + CH, L chain MRAL-k0; copies: 2 + 2) heavy: QVQLQESGPGLVKPSETLSLTCAVSGHSISHDHAWSWVRQPPGEGLEWIGFISYSGITNYNPSLQGRVTISRDNSKNTLYLQMNSLRAEDTAVYYCARSLARTTAMDYWGEGTLVTVSSAKTTPPSVYPLAPGSAAQTNSMVTLGCLVKGYFPEPVTVTWNSGSLSSGVHTFPAVLQSDLYTLSSSVTVPSSTWPSETVTCNVAHPASSTKVDKKIVPRDCGCKPCICEPNEVELVFIFPPKPKDVLTITLTPKVTCVVVDISKDDPEVQFSWFVDDVEVHTAQTQPREEQFNMTFRSVSELPIMHQDWLNGKEFKCRVDSAAFPAPIERTISKTKGRPKAPQVYTIPPPKEQMAKDKVSLTCMITDFFPEDITVEWQWNGQPAENYKNTQPIMDTDGSYFVYSKLNVQKSNWEAGNTFTCSVLHEGLHNHHTEKSLSHSPGK light: not shown
